The values that follow come from article PMC6208296, “Redox regulation of pyruvate kinase M2 by cysteine oxidation and S-nitrosation” (Biochemical Journal, 2018).

Series [1] concerns the molecule itself. The series is described as follows: crystal structure; hanging drop vapour diffusion, 10 mg/ml protein with 5 mM of each ligand, PEG 3350, sodium cacodylate pH 6, 50 mM MgCl2, 100 mM KCl; 18°C (C424A, with F-1,6-BP, oxalate and ATP) or 4°C (C358S).
Series [2] concerns the molecule itself. The series is described as follows: SEC; analytical gel filtration, Superdex 200 PC 3.2/30 in PBS-CM, room temperature; 0.1 mg/ml incubated 12 h (equilibrium) without or with 1 mM DTT or 20 μM H2O2; tetramer to monomers, peak areas on a bimodal distribution. A general note: Size exclusion chromatography separates by hydrodynamic size, large species first.
Series [3] concerns the molecule itself. The series is described as follows: cell-based or functional assay.

A word on the stoichiometry N: it is the number of molecules, sites or subunits per partner or assembly.

B1: M2PYK C424A (enzyme)
chain: not shown
notes: pyruvate kinase, M2 isoform (M2PYK), human, point mutant made on pET28a-M2PYK; Made by QuikChange on pET28a-M2PYK; no step that removes the His tag is described; source: E. coli BL21, purified (cobalt IMAC, Superdex 200 gel filtration)
Regarding B1, in series [1], the binding result is given as “binds”.

B2: M2PYK C358S (enzyme)
chain: not shown
notes: pyruvate kinase, M2 isoform (M2PYK), human, point mutant made on pET28a-M2PYK; Made by QuikChange on pET28a-M2PYK; no step that removes the His tag is described; also called Cys358Ser; MPYK C358S; source: E. coli BL21, purified (cobalt IMAC, Superdex 200 gel filtration)
With B2, in series [2], the “stoichiometry N” value is 4.

B3: M2PYK C326S (enzyme)
chain: not shown
Consider B3, for which the “enzymatic activity, LDH-coupled assay, without F-1,6-BP, relative to M2PYK WT” value in series [3] was ~20 % of WT activity.
